Source: US11434289B2, “Anti-GPR20 antibody and anti-GPR20 antibody-drug conjugate” (DAIICHI SANKYO COMPANY, LIMITED, priority 2017, dated 2022)
Where a chain is given by its changes, count along the chain named.

B1: 04-079: rat anti-human GPR20 antibody; heavy chain SEQ ID NO: 12, light chain SEQ ID NO: 17 (antibody, listed as Rattus norvegicus)
heavy: MEWNWVFLFLLSVTAVVHSQVQLQQSGAELAKPGSSVKISCKASGYTFTSYYITWIKQTTGQGLKYIGYINPGSGHTNYNEKFKGKATLTVDKSSSTAFMQLSSLTPDDSAVYYCARGAGGFLRIISKFDYWGQGVMVTVSSAQTTAPSVYPLAPGCGDTTSSTVTLGCLVKGYFPEPVTVTWNSGALSSDVHTFPAVLQSGLYTLTSSVTSSTWPSQTVTCNVAHPASSTKVDKKVERRNGGIGHKCPTCPTCHKCPVPELLGGPSVFIFPPKPKDILLISQNAKVTCVVVDVSEEEPDVQFSWFVNNVEVHTAQTQPREEQYNSTFRVVSALPIQHQDWMSGKEFKCKVNNKALPSPIEKTISKPKGLVRKPQVYVMGPPTEQLTEQTVSLTCLTSGFLPNDIGVEWTSNGHIEKNYKNTEPVMDSDGSFFMYSKLNVERSRWDSRAPFVCSVVHEGLHNHHVEKSISRPPGK
light: METDRLLLWVLLLWVPGSTGDTVLTQSPALAVSLGQRVTISCRASKSVSTYMHWYQQRSGQQPKLLIYSASNLESGVPSRFSGSGSGTDFTLTIDPVKADDITNYYCQQSNELPYTFGAGTKLELKRADAAPTVSIFPPSTEQLATGGASVVCLMNNFYPRDISVKWKIDGTERRDGVLDSVTDQDSKDSTYSMSSTLSLTKADYESHNLYTCEVVHKTSSSPVVKSFNRNEC
modifications: SIGNAL (1)..(19); SIGNAL (1)..(20)
B2: 04-046: rat anti-human GPR20 antibody; heavy chain SEQ ID NO: 2, light chain SEQ ID NO: 7 (antibody, listed as Rattus norvegicus)
heavy: B1 heavy with V16E, T54S, Y69F, V112I, S127T
light: B1 light with M52I, K98E, A99P, T103A, S110I
modifications: SIGNAL (1)..(19); SIGNAL (1)..(20)
B3: 04-126: rat anti-human GPR20 antibody; heavy chain SEQ ID NO: 22, light chain SEQ ID NO: 27 (antibody, listed as Rattus norvegicus)
heavy: B1 heavy with V16E, Q24R, T54I, I56M, T60A, K65Q, I67V, A119T
light: B1 light with N72T, K98E, T103A
modifications: SIGNAL (1)..(19); SIGNAL (1)..(20)

Experiments:
[1] = target: T1, human GPR20 with EC2 substituted with a mouse GPR20-derived sequence (Homo sapiens, UniProt Q99678, Y113F); test: Cell-ELISA binding to human/mouse chimeric GPR20 (EC2 substituted); conditions: hGPR20_mECD2, FIG. 22
T1 construct: expressed in transfected cells; host or cells: 293α cells, transient
T1 sequence (Q99678 whole entry Y113F): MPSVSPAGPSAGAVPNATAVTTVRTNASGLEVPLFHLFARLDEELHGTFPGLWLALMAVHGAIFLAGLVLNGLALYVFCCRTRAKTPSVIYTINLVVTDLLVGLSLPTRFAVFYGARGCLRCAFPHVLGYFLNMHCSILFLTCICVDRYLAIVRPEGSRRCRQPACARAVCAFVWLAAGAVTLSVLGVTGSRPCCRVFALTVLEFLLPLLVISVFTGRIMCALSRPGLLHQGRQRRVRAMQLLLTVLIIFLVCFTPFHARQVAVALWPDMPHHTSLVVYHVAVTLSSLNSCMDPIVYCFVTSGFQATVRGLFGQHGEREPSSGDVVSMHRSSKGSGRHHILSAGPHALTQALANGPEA
Description: (§1) The culture supernatant of the 293a cells transfected with the expression vector prepared in Example 1)-4-1 was removed, and the culture supernatant from each hybridoma was then added to the 293a cells transfected either with pcDNA3.1-hGPR20 or pcDNA3.1. The cells were left standing at 4° C. for 1 hour. The cells in the wells were washed once with PBS (+) supplemented with 5% FBS, and thereafter, Anti-Rat IgG-Peroxidase antibody produced in rabbit (Sigma-Aldrich Co. LLC) that had been 500-fold diluted with PBS (+) supplemented with 5% FBS was added to the wells. The cells were left standing at 4° C. for 1 hour. The cells in the wells were washed three times with PBS (+) supplemented with 5% FBS, and thereafter, OPD chromogenic solution (which had been prepared by dissolving o-phenylenediamine dihydrochloride (Wako Pure Chemical Industries, Ltd.) and H2O2 in an OPD solution (0.05 M trisodium citrate, 0.1 M disodium hydrogen phosphate 12-water; pH 4.5), so that the substances became 0.4 mg/ml and 0.6% (v/v), respectively) was added in an amount of 100 μL/well to the wells. A coloring reaction was carried out with occasional stirring. Thereafter, 1 M HCl was added to the plate (100 μL/well) to terminate the coloring reaction, followed by measurement of the absorbance at 490 nm using a plate reader (ENVISION: PerkinElmer, Inc.).
In the construction of expression vectors given below, using the full-length human GPR20 expression vector pcDNA3.1-hGPR20 produced in Example 1 as a template, each PCR reaction was carried out with the primer set given below. In this reaction, KOD FX DNA polymerase (Toyobo Co., Ltd.) was used, and the reaction was carried out at 15 cycles or 10 cycles each involving 98° C. for 10 seconds, 58° C. for 30 seconds, and 68° C. for 7 minutes. Thereafter, the obtained PCR product was treated with the restriction enzyme Dpnl. […]

mouse GPR20 = target: T2, mouse GPR20 (Mus musculus, UniProt Q8BYC4); test: Cell-ELISA binding to 293α cells expressing mouse GPR20; conditions: transiently transfected 293α cells, FIG. 22
T2 construct: using the full-length mouse GPR20 expression vector pcDNA-mGPR20 constructed in 4)-1 as a template; expressed in transfected cells; host or cells: 293α cells, transient
T2 sequence (Q8BYC4 whole entry): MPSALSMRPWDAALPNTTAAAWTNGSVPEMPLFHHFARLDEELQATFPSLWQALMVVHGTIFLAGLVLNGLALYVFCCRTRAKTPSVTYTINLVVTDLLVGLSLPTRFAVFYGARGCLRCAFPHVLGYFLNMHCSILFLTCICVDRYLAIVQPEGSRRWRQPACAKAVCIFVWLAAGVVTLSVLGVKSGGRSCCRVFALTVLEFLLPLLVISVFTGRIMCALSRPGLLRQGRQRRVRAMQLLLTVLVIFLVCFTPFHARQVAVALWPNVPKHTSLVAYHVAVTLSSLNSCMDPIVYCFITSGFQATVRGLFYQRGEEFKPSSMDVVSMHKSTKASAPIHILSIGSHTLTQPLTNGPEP
Description: as §1
According to a method known to a person skilled in the art, cDNA was artificially synthesized based on Ref Seq sequence NM_173365 of mouse GPR20, and then cloned into pcDNA-DEST40 expression vector (Invitrogen Corp.) to construct mouse GPR20 expression vector pcDNA-mGPR20.
The binding activity of the anti-GPR20 antibodies 04-046, 04-079, 04-126, 04-021, 13-024, and 13-048 against 293a cells into which different GPR20 expression vectors were transiently introduced was examined by the same method as the Cell-ELISA method shown in Example 1. […]

human GPR20 = target: T3, human GPR20 (Homo sapiens, UniProt Q99678); test: Human GPR20-binding antibody screening by flow cytometry (hybridoma culture supernatants, transfected 293T cells); conditions: hybridoma culture supernatant; 293T cells transfected with pcDNA3.1-hGPR20 vs control pcDNA3.1; FIG. 18
T3 construct: expressed in transfected cells; host or cells: 293T cells, transient, Lipofectamine 2000
T3 sequence (Q99678 whole entry): as the sequence (Q99678 whole entry Y113F) above, with F113Y counted along it
Description: 293T cells were seeded in a 225-cm^2 flask (Sumitomo Bakelite Co., Ltd.) at 5×10^4 cells/cm^2, and the cells were then cultured overnight under conditions of 37° C. and 5% CO2 in DMEM medium supplemented with 10% FBS. pcDNA3.1-hGPR20 or pcDNA3.1 as a negative control was introduced into the 293T cells using Lipofectamine 2000, and the cells were further cultured overnight under conditions of 37° C. and 5% CO2. The 293T cells transfected with each expression vector were treated with TrypLE Express (Life Technologies Corp.), and the cells were washed with DMEM supplemented with 10% FBS, and then suspended in PBS supplemented with 5% FBS. The obtained cell suspension was used in flow cytometry analysis.
The binding specificity to human GPR20 of an antibody produced from hybridomas that had been determined to be positive by Cell-ELISA in Example 1)-4-2 was further confirmed by flow cytometry. The suspension of the transiently expressing 293T cells prepared in Example 1)-5-1 was centrifuged, and a supernatant was then removed. Thereafter, the cells were suspended by the addition of the culture supernatant from each hybridoma. The cells were left standing at 4° C. for 1 hour. The cells were washed twice with PBS supplemented with 5% FBS, and thereafter, the cells were suspended by the addition of Anti-Rat IgG FITC conjugate (Sigma-Aldrich Co. LLC) that had been 500-fold diluted with PBS supplemented with 5% FBS. […] The data was analyzed using Flowjo (Tree Star, Inc.). After dead cells were removed from analysis by gating out 7-aminoactinomycin D-positive cells, a histogram of the FITC fluorescence intensity of live cells was generated. Hybridomas producing human GPR20-binding antibodies (178 clones) were selected based on results where the histogram for the antibody shifted to the strong fluorescence intensity side in the 293T cells transfected with pcDNA3.1-hGPR20 compared with the 293T cells transfected with the control pcDNA3.1. […] The abscissa of FIG. 18 depicts clone No., and the ordinate thereof depicts the amount of the antibody bound based on MFI (mean fluorescence intensity).

Molecule | binding activity after substituting EC2 of human GPR20 with that of mouse-derived GPR20 [1] | binding activity against mouse GPR20 (mouse GPR20) | binding to human GPR20 (amount of the antibody bound based on MFI) (human GPR20)
B1 | lost binding activity | did not bind | specifically binding to human GPR20
B2 | lost binding activity | did not bind | specifically binding to human GPR20
B3 | lost binding activity | did not bind | specifically binding to human GPR20
